The values that follow are results of earlier work, collected in PMC5423825.

The data set concerns the target CFluc398 (FGG-tagged C-terminal firefly luciferase fragment) CFluc398 (Photinus pyralis) [luciferase: P08659].

Consider “NFluc437 (FGG-tagged N-terminal firefly luciferase fragment) NFluc437 (from UniProt P08659)”, for which the equilibrium dissociation constant (Kd) was 112 µM.

In general, Kd refers to the constant that tells how readily two partners part at equilibrium.
